Test results: the supplement of paper PMC7877785
± gives the uncertainty stated by the source.

Assay: self-splicing fitness, log relative to wild type (ln ratio); higher = more splicing; Tetrahymena group I intron in knt gene, E. coli kanamycin selection, DiMSum; sequences stand for … in CUCUCU…GGAGGGAAAAGUUAUCAGGCAUGCACCUGGUAGCUAGUCUUUAAACCAAUAGAUUGCAUCGGUUUAAAAGGCAAGACCGUCAAAUUGCGGGAAAGGGGUCAACAGCCGUUCAGUACCAAGUCUCAGGGGAAACUUUGAGAUGGCCUUGCAAAGGGUAUGGUAAUAAGCUGACGGACAUGGUCCUAACCACGCAGCCAAGUCCUAAGUCAACAGAUCUUCUGUUGAUAUGGAUGCAGUUCACAGACUAAAUGUCGGUCGGGGAAGAUGUAUUCUUCUCAUAAGAUAUAGUCGGACCUCUCCUUAAUGGGAGCUAGCGGAUGAAGUGAUGCAACACUGGAGCCGCUGGGAACUAAUUUGUAUGCGAAAGUAUAUUGAUUAGUUUUGGAGUACUCGUGGUCG
How it was run: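 The eight P1ex-region nucleotides of an intron in the knt kanamycin-resistance gene on pET-22b(+) were all randomised and the library put into E. coli BL21(DE3). Six replicate transformations were grown overnight at 37°C or 30°C on LB agar with or without 25 μg/mL kanamycin, together with 100 μg/mL carbenicillin, 50 μM IPTG and 0.2% rhamnose. Colonies were pooled and amplicon-sequenced on an Illumina HiSeq 2500. Fitness from DiMSum is the error-weighted combination of wild-type-normalised replicate fold changes, kanamycin over none.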

Sequence | self-splicing fitness (ln) (30 °C) | self-splicing fitness (ln) (37 °C)
CGAGAGCAAUAUUACGACGU | -2.81 ± 0.22 | -3.04 ± 0.43
CGAGAGCAAUAUUACGAUGA | -2.11 ± 0.28 | -1.27 ± 0.25
CGAGAGCAAUAUUACGAUGG | -3.15 ± 0.2 | -0.694 ± 0.16
CGAGAGCAAUAUUACGCACG | -3.55 ± 0.29 | -1.76 ± 0.3
CGAGAGCAAUAUUACGCAUA | -2.12 ± 0.44 | -1.44 ± 0.49
CGAGAGCAAUAUUACGCGGA | -2.34 ± 0.37 | -1.37 ± 0.19
CGAGAGCAAUAUUACGCGGU | -3.23 ± 0.23 | -2.4 ± 0.24
CGAGAGCAAUAUUACGCUAG | – | -2.77 ± 0.4
CGAGAGCAAUAUUACGCUGC | -2.93 ± 0.36 | -2.48 ± 0.37
CGAGAGCAAUAUUACGGAAC | -1.56 ± 0.44 | –
CGAGAGCAAUAUUACGGAGG | -2.7 ± 0.49 | –
CGAGAGCAAUAUUACGGCGG | -1.63 ± 0.14 | -0.665 ± 0.26
CGAGAGCAAUAUUACGGCGU | -2.46 ± 0.28 | -1.2 ± 0.19
CGAGAGCAAUAUUACGGCUC | -1.09 ± 0.21 | –
CGAGAGCAAUAUUACGGGUG | -2.95 ± 0.15 | -2.01 ± 0.16
CGAGAGCAAUAUUACGUCGG | -2.51 ± 0.15 | -0.79 ± 0.15
CGAGAGCAAUAUUACGUUUC | -2.76 ± 0.25 | -2.59 ± 0.27
CGAUAGCAAUAUUACGAAAU | -3.36 ± 0.28 | -2.5 ± 0.33
CGAUAGCAAUAUUACGAACA | -2.13 ± 0.47 | -1.38 ± 0.27
CGAUAGCAAUAUUACGAACU | -0.913 ± 0.097 | -0.465 ± 0.13
CGAUAGCAAUAUUACGACCA | -0.39 ± 0.46 | -0.619 ± 0.33
CGAUAGCAAUAUUACGAGAA | -2.67 ± 0.36 | -2.73 ± 0.47
CGAUAGCAAUAUUACGAGCG | -0.984 ± 0.12 | -0.453 ± 0.13
CGAUAGCAAUAUUACGAGGA | -3.08 ± 0.38 | -2.27 ± 0.38
CGAUAGCAAUAUUACGAGUA | -2.16 ± 0.26 | -1.88 ± 0.19

Sequence | self-splicing fitness (ln) (30 °C) | self-splicing fitness (ln) (37 °C)
CGAUAGCAAUAUUACGAGUG | -0.68 ± 0.08 | -0.335 ± 0.096
CGAUAGCAAUAUUACGAUCG | -2.55 ± 0.24 | -2.39 ± 0.38
CGAUAGCAAUAUUACGCACC | -2.55 ± 0.15 | -1.09 ± 0.16
CGAUAGCAAUAUUACGCAGC | -4.01 ± 0.36 | -1.34 ± 0.24
CGAUAGCAAUAUUACGCAUU | -1.87 ± 0.2 | -1.3 ± 0.21
CGAUAGCAAUAUUACGCCAA | -2.66 ± 0.25 | -1.87 ± 0.15
CGAUAGCAAUAUUACGCGCC | -2.04 ± 0.33 | 0.215 ± 0.24
CGAUAGCAAUAUUACGCUCG | – | -2.03 ± 0.47
CGAUAGCAAUAUUACGCUGC | -3.15 ± 0.36 | -2.21 ± 0.5
CGAUAGCAAUAUUACGGAGU | -2.09 ± 0.16 | -3.36 ± 0.32
CGAUAGCAAUAUUACGGCUC | -2.44 ± 0.14 | -1.15 ± 0.17
CGAUAGCAAUAUUACGGUUC | -3.63 ± 0.27 | -1.96 ± 0.16
CGAUAGCAAUAUUACGUACA | -1.98 ± 0.13 | -0.0364 ± 0.14
CGAUAGCAAUAUUACGUACG | -1.83 ± 0.097 | -1.05 ± 0.1
CGAUAGCAAUAUUACGUCAG | -1.39 ± 0.13 | -1.25 ± 0.14
CGAUAGCAAUAUUACGUCCC | -1.28 ± 0.23 | -0.717 ± 0.28
CGAUAGCAAUAUUACGUUGC | -4.22 ± 0.34 | -3.8 ± 0.22
CGCAAGCAAUAUUACGAAGA | -2.75 ± 0.21 | -1.73 ± 0.17
CGCAAGCAAUAUUACGACCC | -2.18 ± 0.3 | 0.0863 ± 0.29
CGCAAGCAAUAUUACGACCU | -0.793 ± 0.092 | -0.711 ± 0.12
CGCAAGCAAUAUUACGACGG | 0.00768 ± 0.061 | 0.452 ± 0.08
CGCAAGCAAUAUUACGAGCU | -0.541 ± 0.063 | -0.633 ± 0.078
CGCAAGCAAUAUUACGAGUG | -1.99 ± 0.057 | -1.72 ± 0.084
CGCAAGCAAUAUUACGAGUU | -3.26 ± 0.13 | -1.45 ± 0.1
